Test results taken from patent publication US20210179706A1.
Where “and” joins values, the source holds several entries; their conditions need not be identical. Equal values may be shown once. Read-outs that look alike come from different tables or passages of the source.

Tests used:
human IL-1β-hFc (human) [1] = target: human IL-1β-hFc (human) (UniProt P01584); assay: competition ELISA on coated IL-1β-hFc, competitor IL-1R1(1-332)-his (anti-His-HRP read-out); antibody 1.000 µg/mL
human IL-1β-hFc (human) [2] = target: human IL-1β-hFc (human) (UniProt P01584); assay: competition ELISA on coated IL-1β-hFc, competitor IL-1R1(1-332)-his (anti-His-HRP read-out); antibody 0.012 µg/mL
human IL-1β-hFc (human) [3] = target: human IL-1β-hFc (human) (UniProt P01584); assay: competition ELISA on coated IL-1β-hFc, competitor IL-1R1(1-332)-his (anti-His-HRP read-out); antibody 0.333 µg/mL
[4] = target: human IL-1β-His-Bio (human) (UniProt P01584); assay: ELISA, IL-1β-His-Bio captured on streptavidin; antibody 0.333 µg/mL
human IL-1β-hFc (human) [5] = target: human IL-1β-hFc (human) (UniProt P01584); assay: competition ELISA on coated IL-1β-hFc, competitor IL-1R1(1-332)-his (anti-His-HRP read-out); antibody 0.111 µg/mL
[6] = target: human IL-1β-His-Bio (human) (UniProt P01584); assay: ELISA, IL-1β-His-Bio captured on streptavidin; antibody 0.333 µg/mL diluted 1:27
human IL-1β-hFc (human) [7] = target: human IL-1β-hFc (human) (UniProt P01584); assay: competition ELISA on coated IL-1β-hFc, competitor IL-1R1(1-332)-his (anti-His-HRP read-out); antibody 0.037 µg/mL
[8] = target: human IL-1β-His-Bio (human) (UniProt P01584); assay: ELISA, IL-1β-His-Bio captured on streptavidin; antibody 0.037 µg/mL
[9] = target: human IL-1β-His-Bio (human) (UniProt P01584); assay: ELISA, IL-1β-His-Bio captured on streptavidin; antibody 0.012 µg/mL
[10] = target: human IL-1β-His-Bio (human) (UniProt P01584); assay: ELISA, IL-1β-His-Bio captured on streptavidin; antibody 0.004 µg/mL
human IL-1β-hFc (human) [11] = target: human IL-1β-hFc (human) (UniProt P01584); assay: competition ELISA on coated IL-1β-hFc, competitor IL-1R1(1-332)-his (anti-His-HRP read-out); antibody 0.004 µg/mL
[12] = target: human IL-1β-His-Bio (human) (UniProt P01584); assay: ELISA, IL-1β-His-Bio captured on streptavidin; antibody 0.001 µg/mL
human IL-1β-hFc (human) [13] = target: human IL-1β-hFc (human) (UniProt P01584); assay: competition ELISA on coated IL-1β-hFc, competitor IL-1R1(1-332)-his (anti-His-HRP read-out); antibody 0.111 µg/mL; remark: listed apart in the source
human IL-1β-hFc (human) [14] = target: human IL-1β-hFc (human) (UniProt P01584); assay: competition ELISA on coated IL-1β-hFc, competitor IL-1R1(1-332)-his (anti-His-HRP read-out); antibody 1.000 µg/mL; remark: listed apart in the source
[15] = target: human IL-1β-His-Bio (human) (UniProt P01584); assay: ELISA, IL-1β-His-Bio captured on streptavidin; antibody 0.333 µg/mL diluted 1:9
[16] = target: human IL-1β-His-Bio (human) (UniProt P01584); assay: ELISA, IL-1β-His-Bio captured on streptavidin; antibody 0.333 µg/mL diluted 1:243
[17] = target: human IL-1β-His-Bio (human) (UniProt P01584); assay: ELISA, IL-1β-His-Bio captured on streptavidin; antibody 0.333 µg/mL diluted 1:81
[18] = target: human IL-1β-His-Bio (human) (UniProt P01584); assay: ELISA, IL-1β-His-Bio captured on streptavidin; 4-parameter fit
human IL-1β-hFc (human) [19] = target: human IL-1β-hFc (human) (UniProt P01584); assay: competition ELISA on coated IL-1β-hFc, competitor IL-1R1(1-332)-his (anti-His-HRP read-out); antibody 0.037 µg/mL; remark: listed apart in the source
human IL-1β-hFc (human) [20] = target: human IL-1β-hFc (human) (UniProt P01584); assay: competition ELISA on coated IL-1β-hFc, competitor IL-1R1(1-332)-his (anti-His-HRP read-out); antibody 0.012 µg/mL; remark: listed apart in the source
human IL-1β-hFc (human) [21] = target: human IL-1β-hFc (human) (UniProt P01584); assay: competition ELISA on coated IL-1β-hFc, competitor IL-1R1(1-332)-his; 4-parameter fit
human IL-1β-his (human) = human IL-1β-his (human) (UniProt P01584); assay: SPR (Biacore), antibody amine-coupled on CM5, IL-1β 1.56-25 nM as analyte
human IL-1β-hFc (human) [22] = target: human IL-1β-hFc (human) (UniProt P01584); assay: competition ELISA on coated IL-1β-hFc, competitor IL-1R1(1-332)-his (anti-His-HRP read-out); antibody 0.333 µg/mL; remark: listed apart in the source
[23] = target: human IL-1β-His-Bio (human) (UniProt P01584); assay: ELISA, IL-1β-His-Bio captured on streptavidin; 4-parameter fit; remark: listed apart in the source
[24] = target: human IL-1β-His-Bio (human) (UniProt P01584); assay: ELISA, IL-1β-His-Bio captured on streptavidin; antibody 0.333 µg/mL diluted 1:3
[25] = target: human IL-1β-His-Bio (human) (UniProt P01584); assay: ELISA, IL-1β-His-Bio captured on streptavidin; antibody 0.111 µg/mL
human IL-1β-hFc (human) [26] = target: human IL-1β-hFc (human) (UniProt P01584); assay: competition ELISA on coated IL-1β-hFc, competitor IL-1R1(1-332)-his (anti-His-HRP read-out); antibody 0.001 µg/mL
[27] = target: human IL-1β-His-Bio (human) (UniProt P01584); assay: ELISA, IL-1β-His-Bio captured on streptavidin; antibody 0.333 µg/mL diluted 1:729
[28] = target: human IL-1β-His-Bio (human) (UniProt P01584); assay: ELISA, IL-1β-His-Bio captured on streptavidin; antibody 0.333 µg/mL; remark: listed apart in the source
human IL-1β-hFc (human) [29] = target: human IL-1β-hFc (human) (UniProt P01584); assay: competition ELISA on coated IL-1β-hFc, competitor IL-1R1(1-332)-his (anti-His-HRP read-out); antibody 0.001 µg/mL; remark: listed apart in the source
human IL-1β-hFc (human) [30] = target: human IL-1β-hFc (human) (UniProt P01584); assay: competition ELISA on coated IL-1β-hFc, competitor IL-1R1(1-332)-his; 4-parameter fit; remark: listed apart in the source
human IL-1β-hFc (human) [31] = target: human IL-1β-hFc (human) (UniProt P01584); assay: competition ELISA on coated IL-1β-hFc, competitor IL-1R1(1-332)-his (anti-His-HRP read-out); antibody 0.004 µg/mL; remark: listed apart in the source
[32] = target: human IL-1β-His-Bio (human) (UniProt P01584); assay: ELISA, IL-1β-His-Bio captured on streptavidin; antibody 1 µg/mL

OD (450 nm) of blocking assay (human IL-1β-hFc (human) [1]): 0.093 OD450 and 0.088 OD450 | OD (450 nm) of blocking assay (human IL-1β-hFc (human) [2]): 0.572 OD450 and 0.579 OD450 | OD (450 nm) of blocking assay (human IL-1β-hFc (human) [3]): 0.059 OD450 and 0.057 OD450 | OD (450 nm) [4]: 2.81 OD450 and 2.94 OD450 | OD (450 nm) of blocking assay (human IL-1β-hFc (human) [5]): 0.519 OD450 and 0.526 OD450 | OD (450 nm) [6]: 1.7 OD450 and 1.96 OD450 | OD (450 nm) of blocking assay (human IL-1β-hFc (human) [7]): 0.736 OD450 and 0.705 OD450 | OD (450 nm) [8]: 2.64 OD450 and 2.68 OD450 | OD (450 nm) [9]: 2.06 OD450 and 2.12 OD450 | OD (450 nm) [10]: 1.26 OD450 and 1.2 OD450 | OD (450 nm) of blocking assay (human IL-1β-hFc (human) [11]): 0.727 OD450 and 0.684 OD450 | OD (450 nm) [12]: 0.581 OD450 and 0.559 OD450 | OD (450 nm) of blocking assay (human IL-1β-hFc (human) [13]): 0.091 OD450 and 0.092 OD450 | OD (450 nm) of blocking assay (human IL-1β-hFc (human) [14]): 0.053 OD450 and 0.052 OD450 | OD (450 nm) [15]: 2.46 OD450 and 2.61 OD450 | OD (450 nm) [16]: 0.408 OD450 and 0.573 OD450 | OD (450 nm) [17]: 0.852 OD450 and 1.11 OD450 | EC50 [18]: 0.039 nM | OD (450 nm) of blocking assay (human IL-1β-hFc (human) [19]): 0.366 OD450 and 0.379 OD450 | OD (450 nm) of blocking assay (human IL-1β-hFc (human) [20]): 0.797 OD450 and 0.706 OD450 | EC50 (human IL-1β-hFc (human) [21]): 0.26 nM | Kd (human IL-1β-his (human)): 0.0979 nM | OD (450 nm) of blocking assay (human IL-1β-hFc (human) [22]): 0.104 OD450 and 0.126 OD450 | EC50 [23]: 0.057 nM | OD (450 nm) [24]: 2.68 OD450 and 2.88 OD450 | OD (450 nm) [25]: 2.9 OD450 and 2.89 OD450 | OD (450 nm) of blocking assay (human IL-1β-hFc (human) [26]): 0.738 OD450 and 0.559 OD450 | OD (450 nm) [27]: 0.315 OD450 | OD (450 nm) [28]: 2.9 OD450 and 2.88 OD450 | OD (450 nm) of blocking assay (human IL-1β-hFc (human) [29]): 0.577 OD450 and 0.72 OD450 | EC50 (human IL-1β-hFc (human) [30]): 0.961 nM | OD (450 nm) of blocking assay (human IL-1β-hFc (human) [31]): 0.765 OD450 and 0.735 OD450 | OD (450 nm) [32]: 2.87 OD450
Substance: canakinumab (trade name Ilaris) (antibody)
